Assay results from patent US20020192780.

Columns and labels:
[1] = target: PLA2 (Bovine pancreas, EC 3.1.1.4, Sigma), P00593
SEQ ID NO:2 (KVLDGQDP) = target: T1, SEQ ID NO:2 (KVLDGQDP)
T1 chain: KVLDGQDP

SEQ ID NO:1 (KVLDPVKG) = target: T2, SEQ ID NO:1 (KVLDPVKG)
T2 chain: KVLDPVKG

Chain of PLA2 (Bovine pancreas, EC 3.1.1.4, Sigma), P00593 (P00593 23-145): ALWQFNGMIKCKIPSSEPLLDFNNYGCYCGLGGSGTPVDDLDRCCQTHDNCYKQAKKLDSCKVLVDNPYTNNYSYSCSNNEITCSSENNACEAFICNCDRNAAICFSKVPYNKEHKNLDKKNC

B1: TGase (Guinea pig liver, EC 2.3.2.13, Sigma) (protein)
chain: AEDLILERCDLQLEVNGRDHRTADLCRERLVLRRGQPFWLTLHFEGRGYEAGVDTLTFNAVTGPDPSEEAGTMARFSLSSAVEGGTWSASAVDQQDSTVSLLLSTPADAPIGLYRLSLEASTGYQGSSFVLGHFILLYNPRCPADAVYMDSDQERQEYVLTQQGFIYQGSAKFINGIPWNFGQFEDGILDICLMLLDTNPKFLKNAGQDCSRRSRPVYVGRVVSAMVNCNDDQGVLQGRWDNNYSDGVSPMSWIGSVDILRRWKDYGCQRVKYGQCWVFAAVACTVLRCLGIPTRVVTNFNSAHDQNSNLLIEYFRNESGEIEGNKSEMIWNFHCWVESWMTRPDLEPGYEGWQALDPTPQEKSEGTYCCGPVPVRAIKEGHLNVKYDAPFVFAEVNADVVNWIRQKDGSLRKSINHLVVGLKISTKSVGRDEREDITHTYKYPEGSEEEREAFVRANHLNKLATKEEAQEETGVAMRIRVGQNMTMGSDFDIFAYITNGTAESHECQLLLCARIVSYNGVLGPVCSTNDLLNLTLDPFSENSIPLHILYEKYGDYLTESNLIKVRGLLIEPAANSYVLAERDIYLENPEIKIRVLGEPKQNRKLIAEVSLKNPLPVPLLGCIFTVEGAGLTKDQKSVEVPDPVEAGEQAKVRVDLLPTEVGLHKLVVNFECDKLKAVKGYRNVIIGPA
**Q.** Which PLA2 activity [1] does the source give for B1 here?
**A.** PLA2 activity was increased about 2-fold after TGase 2 treatment

**Q.** And the “TGase activity (incorporation of 14C-putrescine into succinylated casein), peptide 1x10^-8 M preincubated with the enzyme” value (SEQ ID NO:2 (KVLDGQDP))?
**A.** significantly reduced the PLA2 and TGase activities

**Q.** What about the “TGase activity (incorporation of 14C-putrescine into succinylated casein), peptide 1x10^-8 M preincubated with the enzyme” value (SEQ ID NO:1 (KVLDPVKG)) of the same protein?
**A.** significantly reduced the PLA2 and TGase activities
